Laboratory results: patent US20250339519A1 (ASHER BIOTHERAPEUTICS, published 2025)
Where a chain is given by its changes, count along the chain named.

B1: IL-21 v31.23 (ligand)
chain: QGQDRHMIRMRQLIDIVDQLKNYVNDLVPEFLPAPEDVETNCEWSAFSCFQKAQLKSANTGNNERIINVSIKKLKQKPPGGEGGGGGGGEGGCPSCDSYEKKPPKEFLERFKSLLQKMIHQHLSSRTHGSEDS
notes: also called hIL21 v31.23
B2: IL-21 v31.51 (ligand)
chain: B1 chain with R9G, Q76R
notes: also called hIL21 v31.51

Biological target: human IL-21 receptor (human, UniProt Q9HBE5 20-232, limits assumed)
Assay: KD at 37 C; method and format not stated

Sequence of human IL-21 receptor (Q9HBE5 20-232 limits assumed): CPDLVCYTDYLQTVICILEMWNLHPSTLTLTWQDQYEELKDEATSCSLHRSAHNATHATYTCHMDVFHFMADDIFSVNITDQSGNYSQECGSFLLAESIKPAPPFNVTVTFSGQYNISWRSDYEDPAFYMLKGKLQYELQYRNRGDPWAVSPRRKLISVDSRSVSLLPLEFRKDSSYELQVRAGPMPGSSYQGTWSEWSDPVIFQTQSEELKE

Row | Binder | Kd [µM]
1 | B1 | 6.06
2 | B2 | 7.73
